These results are taken from publication PMC10002728.

What all share (test): SPR
Test [1] addresses B. hermsii strain HS1 FbpC C-terminal complement inhibitory domain, residues 212-374 (Borrelia hermsii strain HS1).
Test [2] has as its target FbpC-C R248A (Borrelia hermsii strain HS1).
The target in test [3] is FbpC-C H252A (Borrelia hermsii strain HS1).

B1: human complement C1r, zymogen form (enzyme)
chain: SIPIPQKLFGEVTSPLFPKPYPNNFETTTVITVPTGYRVKLVFQQFDLEPSEGCFYDYVKISADKKSLGRFCGQLGSPLGNPPGKKEFMSQGNKMLLTFHTDFSNEENGTIMFYKGFLAYYQAVDLDECASRSKSGEEDPQPQCQHLCHNYVGGYFCSCRPGYELQEDTHSCQAECSSELYTEASGYISSLEYPRSYPPDLRCNYSIRVERGLTLHLKFLEPFDIDDHQQVHCPYDQLQIYANGKNIGEFCGKQRPPDLDTSSNAVDLLFFTDESGDSRGWKLRYTTEIIKCPQPKTLDEFTIIQNLQPQYQFRDYFIATCKQGYQLIEGNQVLHSFTAVCQDDGTWHRAMPRCKIKDCGQPRNLPNGDFRYTTTMGVNTYKARIQYYCHEPYYKMQTRAGSRESEQGVYTCTAQGIWKNEQKGEKIPRCLPVCGKPVNPVEQRQRIIGGQKAKMGNFPWQVFTNIHGRGGGALLGDRWILTAAHTLYPKEHEAQSNASLDVFLGHTNVEELMKLGNHPIRRVSVHPDYRQDESYNFEGDIALLELENSVTLGPNLLPICLPDNDTFYDLGLMGYVSGFGVMEEKIAHDLRFVRLPVANPQACENWLRGKNRMDVFSQNMFCAGHPSLKQDACQGDSGGVFAVRDPNTDRWVATGIVSWGIGCSRGYGFYTKVLNYVDWIKKEMEEED
On to B1, for which, in test [1], the Kd was 1.2 nM, the koff turned out to be 5.4e-05 s⁻¹ and the kon came to 44000 M⁻¹ s⁻¹. Besides, in test [2], the Kd amounted to 13 nM, the koff came to 0.00063 s⁻¹ and the kon is 69000 M⁻¹ s⁻¹.

B2: human complement C1r, activated form (enzyme)
chain: SIPIPQKLFGEVTSPLFPKPYPNNFETTTVITVPTGYRVKLVFQQFDLEPSEGCFYDYVKISADKKSLGRFCGQLGSPLGNPPGKKEFMSQGNKMLLTFHTDFSNEENGTIMFYKGFLAYYQAVDLDECASRSKSGEEDPQPQCQHLCHNYVGGYFCSCRPGYELQEDTHSCQAECSSELYTEASGYISSLEYPRSYPPDLRCNYSIRVERGLTLHLKFLEPFDIDDHQQVHCPYDQLQIYANGKNIGEFCGKQRPPDLDTSSNAVDLLFFTDESGDSRGWKLRYTTEIIKCPQPKTLDEFTIIQNLQPQYQFRDYFIATCKQGYQLIEGNQVLHSFTAVCQDDGTWHRAMPRCKIKDCGQPRNLPNGDFRYTTTMGVNTYKARIQYYCHEPYYKMQTRAGSRESEQGVYTCTAQGIWKNEQKGEKIPRCLPVCGKPVNPVEQRQRIIGGQKAKMGNFPWQVFTNIHGRGGGALLGDRWILTAAHTLYPKEHEAQSNASLDVFLGHTNVEELMKLGNHPIRRVSVHPDYRQDESYNFEGDIALLELENSVTLGPNLLPICLPDNDTFYDLGLMGYVSGFGVMEEKIAHDLRFVRLPVANPQACENWLRGKNRMDVFSQNMFCAGHPSLKQDACQGDSGGVFAVRDPNTDRWVATGIVSWGIGCSRGYGFYTKVLNYVDWIKKEMEEED
With B2, the values for the Kd in test [1], in test [2] and in test [3] were 0.3 nM, 0.19 nM and 2.4 nM, respectively. Besides, the koff in test [1] is 1.4e-05 s⁻¹; in test [2], 9.4e-06 s⁻¹; in test [3] it was 0.00012 s⁻¹. Further, the kon stood at 48000 M⁻¹ s⁻¹ in test [1], 45000 M⁻¹ s⁻¹ in test [2] and 51000 M⁻¹ s⁻¹ in test [3].

For orientation: Kd means the constant that tells how readily two partners part at equilibrium. Low values mean higher affinity, high ones lower affinity. The term koff denotes the first-order rate constant of dissociation. For orientation: kon means the rate constant with which the complex forms. Read a low kon as slow association.
